Experimental data from the DeepSol protein solubility set.

Experiment: soluble on expression in E. coli; label from the status in PepcDB or PDB records

LQMTQSPSFLSASVGDRVSITCRASQDIQKFLAWYQLTPGDAPKLLMYSASTLQSGVPSRFSGSGSGTEFTLTISGLQPEDFATYYCQHLKRYPYTFGQGTKLEISRTVAAPSVFIFPPSDEQLKSGTASVVCLLNNFYPREAKVQWKVDNALQSGNSQESVTEQDNKDSTYSLSSTLTLSKADYEKHKVYACEVTHQGLSSPVTKSFNRGEC
soluble on expression in E. coli: soluble

MSLSVRFAGMATCVPKRVVSNLTDCKPQIRPERERLVRNIGIELRRLTQEWQCFSDLAFDAASKLIESLEWKLEEIDALIVVTQSPDYLAPATAIILQDRLGLPHTTLAFDVNLGCSGYPFGLHLLGSLISAGGIKKGLVLVGDSGAQLNDPIFSDAGTATAMEFCADAPPMYFDLNSDGSGHKAIILPVGGHREPVGIQHLVPFRENENDHWHRAIDLQLDGTAVLSFSTQRVPPAVEKLLEYANASKDEVDYFIFHQANRMINETIRKKLALPVEKVPSTLRDFGNTSGASLPVTMTARINKQLEEGSKRLVLSGFGIGLSWGTCLVDIQGAKFPDLIESEGHHHHHH
soluble on expression in E. coli: not soluble

MRIAILGGGVAGSTLAYLLSRINYEVTIFDINQHYVKPCGDIVPNIYTPPFNWKETFGIRRFSFYIDGEKIYDVEYRHTKWLVIDKWKWINDMRKSSKVIVTHDNNAKEFDYVIDSRGPYPMDREVVYTTRAIIETEEFDDEAILEFNTRYTGFYWIFPSKENEYNIGAGFLEYKNSKELLNYYLRKRFKNFEVKDIRGAPISIGSVKNKKLRIGEARGLVFPLSGEGIRPSAISAEYAFEAIHKEKDLDGFLNEKLSIIEKRIKIQKMLLDLYRYSSLNLRKTFMRIFFKNEVLIDTYLEDKMDLNGIIESLKSVRANGGIIRKFEEQERLEHHHHHH
soluble on expression in E. coli: not soluble

MALRDSFNKIISYFDTDEVSEVEEPAVASVKRQQDAAQPASQQQKAQSHQYHQSASRPSQQQVQSGQNRRSGEENIHSLPTRRQSHNQQPAQEKTTIALKLPRKYEDAEEIVDLLIRNECVLIDFQYMLEAQARRCLDFIDGASKVLAGNLQKVGASMYLLTPINVIVDAEEMTLAANGQDVSFNYDMKRRLEHHHHHH
soluble on expression in E. coli: not soluble

MAHHHHHHMSAEGLSRFFTENLTEEGRSDLNQWEAKTLEFAQRVNRDGCEGVAFITSGGTAVPLEVHAVRFVTNFSSGGRGAVLVEELLARGWACILLRSKTSQLPFRRLVDNMTTEQFFAELNAPQKSCDVSAAIEAYTKYKSRFLEIPYYTVVEYLYLFSLLTGTLSHRAECLRQTPMMLLAAAAVSDYYIPESRLSHHKMSGGDGLTIQFNNVPKILDLISEEWHGSSRAAPRYLITFKLETEEEQLKAKALRNLGLYRCDAVVANMLQNYRERVLVFWNGEEQNPTLLHRSPNGSVESLMIDHVLQRIKNHAKGCGMQYKLEGRRR
soluble on expression in E. coli: soluble

MGSDKIHHHHHHMSCAHVLRTWAPCIMRRAEQALRNSSYLAWETAMGKLALAAKVTHVPSLYLSELDGPHKGCRQPAIDGHHEIGRRCRELGVDTIVVFDVHWLVNSEYHINCAPKFEGIYTSNELPHFIRNMPYAYPGNVELGNLIAEVASEMGVKSRAHSETTLELEYGTLVPMRYMNADQHFKAVSVAGWCVWHDLDTSVRFGLAVRKAIEERYEGTVAILASGSLSHHFANNGTAEQFMHKVWNPFLEQMDRKVVELWEAGDWKTFCEMLPLYNEKCWGEGGMHDTAMLLGALGWDRYEGKVEVVTPYFGSSGTGQINAIFPVTPLPV
soluble on expression in E. coli: not soluble

ELVMTQSPLSLPVSLGDQASISCRPSQSLVHSNGNTYLHWYLQKPGQSPKLLIYRVSNRFSGVPDRFSGSGSGTAFTLKISRVEAEDLGVYFCSQGTHVPYTFGGGTKLELKRADAAPTVSIFPPSSEQLTSGGASVVCFLNNFYPKDINVKWKIDGSERQNGVLNSWTDQDSKDSTYSMSSTLTLTKDEYERHNSYTCEATHKTSTSPIVKSFNRNEC
soluble on expression in E. coli: soluble

GPLGSMIVFVRFNSSHGFPVEVDSDTSIFQLKEVVAKRQGVPADQLRVIFAGKELRNDWTVQNCDLDQQSIVHIVQRPWRK
soluble on expression in E. coli: soluble

MAQKTFTVTADSGIHARPATTLVQAASKFDSDINLEFNGKTVNLKSIMGVMSLGIQKGATITISAEGSDEADALAALEDTMSKEGLGE
soluble on expression in E. coli: soluble

TQSLSNTFDSAIDDQLANVDVVMSGEKAPMPRGLIDELREDKDHVAAVAVQGATSAVLATEDRKAIQTGAASPTIGIFYGEGSAATTPEKITSGKEPHEANEVLAPESAAELGIKEGSTVVVVDEAGQREVKVVGTYSTEATAHPGVNLLMGEKAFLDRYQPEFIGTIFVKKADGSSEDVVQYLKDKYPDFKVDTGASLAEELTKTIKKALSFVNY
soluble on expression in E. coli: not soluble

MLRKGVSFVGQAVQQTLKTQKNLRIQRFSATASQSSEEVNYEIRKDGKRLRGADYEEIVLTSIAGEDKTQIPKGAFDVLLKEYDDLQAESLDFKDKYQRSLAETENVRRRGIKQTDDAKVFAIQSFCKDLLEVSDILDIAVKSVKPEDLESGGKALKDLFEGVSMTRTVMAKTFAKHGLVTVDPTNEKFDPNLHEAVFQIPSANAKQPVGHIEVCTKIGYSLKERPIRPAQVGVVSK
soluble on expression in E. coli: not soluble

MGSDKIHHHHHHMTNTETIQSLIDSGEGYNVEFKVRVPSKVRELTEEICAFANADGGYLLIGVDDNGQIIGTGLENDKRSAIQGSISEISPALHCDMYAVNIEDKTVWVIDVPSGKDKPYIFSGSIFVREGANSQKLRTVEEMRSFFQECNKIFFDAIPCSWFNIYTDADEQAIKDFRTEAKLSPSTANKQIFENLELFTDNGVAKNGTAMFFGKQPERKFPHAVTRCVLFKGTTKVYIIDDKTFGGPLYQQYLQAMAWLESKLQVAYKIEGAGPREEIWEIPLTVFKEAIINALSHRDYYEQGATITIEMFDDRVEVSNPGGLLPIVAKDFGHKSMTRNPLIFGLFTRMHLVERVASGIPRMQEAMKEANLPEPDFHTDGMFTVIFKRGISIKNDTVNDTVNDTVNDTVNSKEKEVLKIIQKYPGLNSSKIAELIKKSIPTAKRHLNSLVKSGLIEFRGAQKTGGYYIINQQ
soluble on expression in E. coli: not soluble

MGSDKIHHHHHHVAVKAYLKRELRNLQSLAPAVRTAKFSLYNFGTRSAGLFVEPEFKLLAHLRPVKLAIDIGGNWGQSVLALQRYAAPERIVTFEPNPELYRRLSARFRSDPSIQVENVGLGDAAGQFDLHIPLYRNFVYDGLASLNKDEAAQWLNPRTMARFDPSKLTIQSHTVRVVKLDDYNLVPDIIKIDVQGLEDAVARGGIKTIDRAKPAMIVEAPSASFVQMMADCGLRPYTWNGTRLVDAADGSNVMFLSDEKLRKLVKVRPKPEKPE
soluble on expression in E. coli: not soluble

MGSDKIHHHHHHMPLFTEAPKSLCILRLSAVGDVCHALAVVQHIQEYYPQTEMTWIVGKTEMGLLSSIPNITLIPYDKKTGWKGVLSLWKQLKNKQFDALLNMQTAFRASILSLGIKAKFKIGFGEKRSREGQWLFVNRRIRDPFSPHVLDGFMAFAEYIGVPKAEPKWELAISQDDYKFADQFIDFSRKNLLISPCSSKAEKDWLIEGYAEVANIAHQHNINVIFCSSPAKRELEIVEKITALCHFTPTNIAGKTNLKQLTALISKVDLVLSPDSGPAHIATTQGTPVIGLYAYHNPLRTAPYNNLDNVVSVYEENAQKEFGKPSSELPWATKLKGKNLMTEIQVEPVIGQMKKLGLF
soluble on expression in E. coli: not soluble

ACQIFVRNLPFDFTWKMLKDKFNECGHVLYADIKMENGKSKGCGVVKFESPEVAERACRMMNGMKLSGREIDVRIDRNA
soluble on expression in E. coli: soluble

MPRDPLIGIVGKPSSGKSTTLNSLTDAGAAVGAFPFTTIEPNQATGYLQVECACSRFGKEDLCKPNYGWCSKGKRHIPIKLLDVAGLVPGAHSGRGLGNKFLDDLRHADALIHVVDVSGTTDAEGKNTRGYDPLNDIEWLQDEIRLWVEGNLKKRWGSIVRKHTATKSSIVDTLQAQFGGYGSHAPMIQKALDRLKGLPPLEKWDDEWITRVVKSFMMEKFPTVLALNKIDHPDADKNVSKIMLKYPDTKAVLTSAVTEVFLRKLKKQGFILYEEGTEFVDTFEDEPDKLKPLDDKILNRIENIRDLVLYRFGSTGVVQVLQAATDILGLIPVYTVKNIQTFTGGNGTNVFRDCFLVKRGTPVGKVARYIMGGEVTIASIETVGGVRVSEESLVEPGKNDILGFKIAPRSA
soluble on expression in E. coli: soluble

MIINKPSRVRPDGRGKVTGELKYMTDLSFPGMLYGKVLRSAYPHAEIVSVCTIKAEKMEGVQAVVTHKDVPGLNRFGIVIPDQPVLCEDRVRYVGDAIAAVAAETEEIAEAALELIQVEYKELEVMDSPEKALRPNAQRLHEDGNILHRAFFSNGDVEEGFQASDTVFEETYELPRQMHTYMETEGGVAVPEDDGGFTMYAGTQHGYKDRFQLARIFDIPEEKIRIVSSPMGGSFGGKDELNIQPYAALLALKSGRPVKIHQTRKESVRSGIKRHPMKITIKTGADHSGNLLAHDVKIVADTGAYATLGPAVLDFSVEHAAGPYRIPNIRTEGISVFTNNGVAGEFRGFGGNQITFALETHLDRLSGMLGIDPLELRRKNIRKPHDLGPLEHRIAPTDGAAQVLNAISKSPILKKTSRNCGYLQRGTGAAITMHGGGLGFGRMDAAGGRLSLSSEGKITASFGFEECGQGILAAIEQIVMEELGCAAEDISIVIGDTAKVPKSGSSTASRGTSMVWHAIQRLKKPFLAQLKKRAAEWSGCSAENLIPGAAGLRDKNTKALVVTYKELAEKGPLAEETAFDFPTTPDPVVGGHFLYSFGAAAVEVEVDLLTGDVKLIDCEHAIAAGPVVSPQGYRGQIEGGAAMALGYTLMEEAKMTDGRYAAENLDHYLIPGIKDVPDMKLIAIEDLMKGDVYGPRGVGEIGTIAITPAIVKAVHDAVGCWINKLPISREELLEAIDRKGLKQWT
soluble on expression in E. coli: not soluble

AAPYRCPLCRAGCPSLASMQAHMRGHS
soluble on expression in E. coli: soluble

MSLSVKRVLRNTIRKEKEENRVTEPLTETPELSAKYAWFFDLDGTLAEIKPHPDQVVVPDTILQGLQLLATASDGALALISGRSMVELDALAKPYRFPLAGVHGAERRDINGKTHIVHLPDAIARDISVQLHTVIAQYPGAELEAKGMAFALHYRQAPQHEDALMTLAQRITQIWPQMALQQGKCVVEIKPKGTSKGEAIAAFMQEAPFIGRTPVFLGDDLTDESGFAVVNRLGGMSVKIGTGATQASWRLAGVPDVWSWLEMITTALQQKRENNRSDDYESFSRSIEGHHHHHH
soluble on expression in E. coli: soluble

MTMLLSIIVPTFKPQKTYFEECLFSLFNQTMFHYLYEVIVVLNGDIDTQYTDMILDIFAYKPAGLYCRLIKTDQAGVSNARNLGIDAAKGQYIGFVDDDDIVSSDYLEELCKISSRNIVGVSNVHTFRKTIEEKEDNFFACRIIQQRECQYSLFRNRAILAFPVAKLIHRDIIGNRRFNPRFKNGEDALFMTEISDLIGGFRFTKEYTTYYVRERAGSASRRPLKRGQLCWDTFMLIKAYVSIYLSSPFSYNFLLFASRIPGSIKGAIKLSRNTAFFLEHHHHHH
soluble on expression in E. coli: not soluble

MGSDKIHHHHHHMVKPDHGRKRQIELTEIGERIYQHAVELLQAEQNIFLEIENYQQLKTGTLKLGVPPLGSQLLTTALFDFHRQWPDIELAFMEVGSRGIEQALLNNELDVGVLLQPFDEQTFNSIELCNYPLMVLLRRDATWATRKKINLEELQHQSFLMFPENFSLNSIILDACKQYGFYPTIACRTSQWHLLADMVLQRMGIALLPQYYTDMLDPTLFAAVPLEKPNIQWHLVMAWKKNLPASPAVQAWLSIVRQHFQHIKP
soluble on expression in E. coli: not soluble

AHHHHHHGSIIAITGTPGVGKTTVARKLAEKLGCKYVNLRDFALEKGIGEVKGDELEVEVDELAYFVEKEFKGKNVVLDGHLSHLMPADLVIVLRAHPKTIAERLKERGYSKDKIGENVEAELVDVILIEALDEHENVIEVDTTGKTPEEVVNEILNLINSGIKRRVGIVDWTKVYEEIIPYLRLGGD
soluble on expression in E. coli: not soluble
